B1: library; numbered along this chain (parent)
chain: MRKPRAAVGSGHRKQAASQEGRQKHAKNNSQAKPSACDGLARQPEEVVLQASVSSYHLFRDVAEVTAFRGSLLSWYDQEKRDLPWRRRAEDEMDLDRRAYAVWVSEVMLQQTQVATVINYYTGWMQKWPTLQDLASASLEEVNQLWAGLGYYSRGRRLQEGARKVVEELGGHMPRTAETLQQLLPGVGRYTAGAIASIAFGQATGVVDGNVARVLCRVRAIGADPSSTLVSQQLWGLAQQLVDPARPGDFNQAAMELGATVCTPQRPLCSQCPVESLCRARQRVEQEQLLASGSLSGSPDVEECAPNTGQCHLCLPPSEPWDQTLGVVNFPRKASRKPPREESSATCVLEQPGALGAQILLVQRPNSGLLAGLWEFPSVTWEPSEQLQRKALLQELQRWAGPLPATHLRHLGEVVHTFSHIKLTYQVYGLALEGQTPVTTVPPGARWLTQEEFHTAAVSTAMKKVFRVYQGQQPGTCMGSKRSQVSSPCSRKKPRMGQQVLDNFFRSHISTDAHSLNSAAQ

Variants of: B1
Assay: 8OG:A repair function score (normalized; synonymous = 0, nonsense = -1) (normalized log-likelihood score); higher = more repair activity (WT-like)
Conditions: with 8OG:A DNA repair reporter (GFP) in HEK-293 MUTYH KO cells
Procedure, shortened: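 After 72 h, viable mCherry+ cells were split into GFP+ (repair) and GFP− bins in three replicates per tile. These cells were MUTYH knockout HEK-293 cells holding lentiviral MUTYH cDNA NNN codon-scan libraries, kept in 10 pg/ml doxycycline and co-transfected with mCherry plus an 8OG:A GFP repair reporter. Sequencing of tile amplicons gave per-tile Rosace fitness scores, normalized into a repair function score anchored on synonymous and nonsense distributions. Synonymous medians were fixed at 0, nonsense at -1, and variants under 300 counts per million at the start were removed.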
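Note: cells sorted at 72 h after reporter transfection.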

Going from MRKPRAAVGSGHRKQAASQEGRQKHAKNNSQAKPSACDGLARQPEEVVLQASVSSYHLFRDVAEVTAFRGSLLSWYDQEKRDLPWRRRAEDEMDLDRRAYAVWVSEVMLQQTQVATVINYYTGWMQKWPTLQDLASASLEEVNQLWAGLGYYSRVRRLQEGARKVVEELGGHMPRTAETLQQLLPGVGRYTAGAIASIAFGQATGVVDGNVARVLCRVRAIGADPSSTLVSQQLWGLAQQLVDPARPGDFNQAAMELGATVCTPQRPLCSQCPVESLCRARQRVEQEQLLASGSLSGSPDVEECAPNTGQCHLCLPPSEPWDQTLGVVNFPRKASRKPPREESSATCVLEQPGALGAQILLVQRPNSGLLAGLWEFPSVTWEPSEQLQRKALLQELQRWAGPLPATHLRHLGEVVHTFSHIKLTYQVYGLALEGQTPVTTVPPGARWLTQEEFHTAAVSTAMKKVFRVYQGQQPGTCMGSKRSQVSSPCSRKKPRMGQQVLDNFFRSHISTDAHSLNSAAQ [G155V] to MRKPRAAVGSGHRKQAASQEGRQKHAKNNSQAKPSACDGLARQPEEVVLQASVSSYHLFRDVAEVTAFRGSLLSWYDQEKRDLPWRRRAEDEMDLDRRAYAVWVSEVMLQQTQVATVINYYTGWMQKWPTLQDLASASLEEVNQLWAGLGYYSRGRRLQEGARKVVEELGGHMPRTAETLQQLLPGVGRYTAGAIASIAFGQATGVVDGNVARVLCRVRAIGADPSSTLVSQQLWGLAQQLVDPAIPGDFNQAAMELGATVCTPQRPLCSQCPVESLCRARQRVEQEQLLASGSLSGSPDVEECAPNTGQCHLCLPPSEPWDQTLGVVNFPRKASRKPPREESSATCVLEQPGALGAQILLVQRPNSGLLAGLWEFPSVTWEPSEQLQRKALLQELQRWAGPLPATHLRHLGEVVHTFSHIKLTYQVYGLALEGQTPVTTVPPGARWLTQEEFHTAAVSTAMKKVFRVYQGQQPGTCMGSKRSQVSSPCSRKKPRMGQQVLDNFFRSHISTDAHSLNSAAQ [R246I], the “8OG:A repair function score” value falls from -0.116 to -0.836.

Going from MRKPRAAVGSGHRKQAASQEGRQKHAKNNSQAKPSACDGLARQPEEVVLQASVSSYHLFRDVAEVTAFRGSLLSWYDQEKRDLPWRRRAEDEMDLDRRAYAVWVSEVMLQQTQVATVINYYTGWMQKWPTLQDLASASLEEVNQLWAGLGYYSRGRRLQEGARKVVEELGGHMPRTAETLQQLLPGVGRYTASAIASIAFGQATGVVDGNVARVLCRVRAIGADPSSTLVSQQLWGLAQQLVDPARPGDFNQAAMELGATVCTPQRPLCSQCPVESLCRARQRVEQEQLLASGSLSGSPDVEECAPNTGQCHLCLPPSEPWDQTLGVVNFPRKASRKPPREESSATCVLEQPGALGAQILLVQRPNSGLLAGLWEFPSVTWEPSEQLQRKALLQELQRWAGPLPATHLRHLGEVVHTFSHIKLTYQVYGLALEGQTPVTTVPPGARWLTQEEFHTAAVSTAMKKVFRVYQGQQPGTCMGSKRSQVSSPCSRKKPRMGQQVLDNFFRSHISTDAHSLNSAAQ [G193S] to MRKPRAAVGSGHRKQAASQEGRQKHAKNNSQAKPSACDGLARQPEEVVLQASVSSYHLFRDVAEVTAFRGSLLSWYDQEKRDLPWRRRAEDEMDLDRRAYAVWVSEVMLQQTQVATVINYYTGWMQKWPTLQDLASASLEEVNQLWAGLGYYSRGRRLQEGARKVVEELGGHMPRTAETLQQLLPGVGRYTAGAIASIAFGQATGVVDGNVARVLCRVRAIGADPSSTLVSQQLWGLAQQLVDPARPGDFNQAAMELGATVCTPQRPLCSQCPVESACRARQRVEQEQLLASGSLSGSPDVEECAPNTGQCHLCLPPSEPWDQTLGVVNFPRKASRKPPREESSATCVLEQPGALGAQILLVQRPNSGLLAGLWEFPSVTWEPSEQLQRKALLQELQRWAGPLPATHLRHLGEVVHTFSHIKLTYQVYGLALEGQTPVTTVPPGARWLTQEEFHTAAVSTAMKKVFRVYQGQQPGTCMGSKRSQVSSPCSRKKPRMGQQVLDNFFRSHISTDAHSLNSAAQ [L277A], the “8OG:A repair function score” value falls from 0.0283 to -0.125.

Compared with MRKPRAAVGSGHRKQAASQEGRQKHAKNNSQAKPSACDGLARQPEEVVLQASVSSYHLFRDVAEVTAFRGSLLSWYDQEKRDLPWRRRAEDEMDLDRRAYAVWVSEVMLQQTQVATVINYYTGWMQKWPTLQDLASASLEEVNQLWAGLGYYSRGRRLQEGARKVVEELGGHMPRTAETLQQLLPGVGRYTAGAIASIAFGQATGVVDGNVARVLCRVRAIGADPSSTLVSQQLWGLAQQLVDPARPGDFNQAAMELGATVCTPQRPLCSQCPVESLCRARQRVEQEQLLASGSLSGSPDVEECAPNTGQPHLCLPPSEPWDQTLGVVNFPRKASRKPPREESSATCVLEQPGALGAQILLVQRPNSGLLAGLWEFPSVTWEPSEQLQRKALLQELQRWAGPLPATHLRHLGEVVHTFSHIKLTYQVYGLALEGQTPVTTVPPGARWLTQEEFHTAAVSTAMKKVFRVYQGQQPGTCMGSKRSQVSSPCSRKKPRMGQQVLDNFFRSHISTDAHSLNSAAQ [C311P], MRKPRAAVGSGHRKQAASQEGRQKHAKNNSQAKPSACDGLARQPEEVVLQASVSSYHLFRDVAEVTAFRGSLLSWYDQEKRDLPWRRRAEDEMDLDRRAYAVWVSEVMLQQTQVATVINYYTGWMQKWPTLQDLASASLEEVNQLWAGLGYYSRGRRLQEGARKVVEELGGHMPRTAETLQQLLPGVGRYTAGAIASIAFGQATGVVDGNVARVLCRVRAIGADPSSTLVSQQLWGLAQQLVDPARPGDFNQAAMELGATVCTPQRPLCSQCPVESLCRARQRVEQEQLLASGSLSGSPDVEECAPNTGQCHLCLPPSEPWDQTLGVVNFPRKASRKPPREESSATCVLEQPGALGAQILLVQRPNSGLLAGLWEFPSVTWEPSEQLQRKALLQELQRWAGPLPATHLPHLGEVVHTFSHIKLTYQVYGLALEGQTPVTTVPPGARWLTQEEFHTAAVSTAMKKVFRVYQGQQPGTCMGSKRSQVSSPCSRKKPRMGQQVLDNFFRSHISTDAHSLNSAAQ [R409P] is lower in “8OG:A repair function score” value: -0.312 for the first, -0.541 for the second.

Compared with MRKPRAAVGSGHRKQAASQEGRQKHAKNNSQAKPSACDGLARQPEEVVLQASVSSYHLFRDVAEVTAFRGSLLSWYDQEKRDLPWRRRAEDEMDLDRRAYAVWVSEVMLQQTQVATVINYYTGWMQKWPTLQDLASASLEEVNQLWAGLGYYSRGRRLQEGARKVVEELGGHMPRTAETLQQLLPGVGRYTAGAIASIAFGQATGVVDGNVARVLCRVRAIGADPSSTLVSQQLWGLAQQLVDPARPGDFNQAAMELGATVCTPQRPLCSQCPVESLCRARQRVEQEQLLASGSLSGSPDVEECAPNTGQCHLCLPPSEPWDQTLGVVNFPRKASRKPPREESSATCVLEQPGALGAQILLVQRPNSGLLAGLWEWPSVTWEPSEQLQRKALLQELQRWAGPLPATHLRHLGEVVHTFSHIKLTYQVYGLALEGQTPVTTVPPGARWLTQEEFHTAAVSTAMKKVFRVYQGQQPGTCMGSKRSQVSSPCSRKKPRMGQQVLDNFFRSHISTDAHSLNSAAQ [F376W], MRKPRAAVGSGHRKQAASQEGRQKHAKNNSQAKPSACDGLARQPEEVVLQASVSSYHLFRDVAEVTAFRGSLLSWYDQEKRDLPWRRRAEDEMDLDRRAYAVWVSEVMLQQTQVATVINYYTGWMQKWPTLQDLASASLEEVNQLWAGLGYYSRGRRLQEGARKVVEELGGHMPRTAETLQQLLPGVGRYTAGAIASIALGQATGVVDGNVARVLCRVRAIGADPSSTLVSQQLWGLAQQLVDPARPGDFNQAAMELGATVCTPQRPLCSQCPVESLCRARQRVEQEQLLASGSLSGSPDVEECAPNTGQCHLCLPPSEPWDQTLGVVNFPRKASRKPPREESSATCVLEQPGALGAQILLVQRPNSGLLAGLWEFPSVTWEPSEQLQRKALLQELQRWAGPLPATHLRHLGEVVHTFSHIKLTYQVYGLALEGQTPVTTVPPGARWLTQEEFHTAAVSTAMKKVFRVYQGQQPGTCMGSKRSQVSSPCSRKKPRMGQQVLDNFFRSHISTDAHSLNSAAQ [F200L] is higher in “8OG:A repair function score” value: -0.757 for the first, -0.252 for the second.

First: MRKPRAAVGSGHRKQAASQEGRQKHAKNNSQAKPSACDGLARQPEEVVLQASVSSYHLFRDVAEVTAFRGSLLSWYDQEKRDLPWRRRAEDEMDLDRRAYAVWVSEVMLQQTQVATVINYYTGWMQKWPTLQDLASASLEEVNQLWAGLGYYSRGRRLQEGARKVVEELGGHMPRTAETLQQLLPGVGRYTAGAIASIAFGQATGVVDGNVARVLCRVRAIGADPSSTLVSQQLWGLAQQLVDPARPGDFNQAAMELGATVCTPQRPLCSQCPVESLCRARQRVEQEQLLASGSLSGSPDVEECAPNTGQCHLCLPPSEPWDQTLGVVNFPRKASRKPPREESSATQVLEQPGALGAQILLVQRPNSGLLAGLWEFPSVTWEPSEQLQRKALLQELQRWAGPLPATHLRHLGEVVHTFSHIKLTYQVYGLALEGQTPVTTVPPGARWLTQEEFHTAAVSTAMKKVFRVYQGQQPGTCMGSKRSQVSSPCSRKKPRMGQQVLDNFFRSHISTDAHSLNSAAQ [C347Q]
Second: MRKPRAAVGSGHRKQAASQEGRQKHAKNNSQAKPSACDGLARQPEEVVLQASVSSYHLFRDVAEVTAFRGSLLSWYDQEKRDLPWRRRAEDEMDLDRRAYAVWVSEVMLQQTQVATVINYYTGWMQKWPTLQDLASASLEEVNQLWAGLGYYSRGRRLQEGARKVVEELGGHMPRTAETLQQLLPGVGRYTAGAIASIAFGQATGVVDGNVARVLCRVRMIGADPSSTLVSQQLWGLAQQLVDPARPGDFNQAAMELGATVCTPQRPLCSQCPVESLCRARQRVEQEQLLASGSLSGSPDVEECAPNTGQCHLCLPPSEPWDQTLGVVNFPRKASRKPPREESSATCVLEQPGALGAQILLVQRPNSGLLAGLWEFPSVTWEPSEQLQRKALLQELQRWAGPLPATHLRHLGEVVHTFSHIKLTYQVYGLALEGQTPVTTVPPGARWLTQEEFHTAAVSTAMKKVFRVYQGQQPGTCMGSKRSQVSSPCSRKKPRMGQQVLDNFFRSHISTDAHSLNSAAQ [A220M]
The “8OG:A repair function score” value of the first is lower: -1.57 for the first, -0.551 for the second.

Compared with MRKPRAAVGSGHRKQAASQEGRQKHAKNNSQAKPSACDGLARQPEEVVLQASVSSYHLFRDVAEVTAFRGSLLSWYDQEKRDLPWRRRAEDEMDLDRRAYAVWVSEVMLQQTQVATVINYYTGWMQKWPTLQDLASASLEEVNQLWAGLGYYSRGRRLQEGARKVVEELGGHMPRTAETLQQLLPGVGRYTAGAIASIAFGQATGVVDGNVARVLCRVRAIGADPSSTLVSQQLWGLAQQLVDPARPGDFNQAAMELGATVCTPQRPLCSQCPVESLCRARQRVEQEQLLASGSLSGSPDVEECAPNTGQCHLCLPPSEPWDQTLGVVNFPRKASRKPPREESSATCVLEQPGALGAQILLVQRPNSGLLAGLWEFPSVTWEPSEQLQRKALLQELQRWAGPLPATHLRHLGEVVHTFSHIKLTYQVYGLAQEGQTPVTTVPPGARWLTQEEFHTAAVSTAMKKVFRVYQGQQPGTCMGSKRSQVSSPCSRKKPRMGQQVLDNFFRSHISTDAHSLNSAAQ [L432Q], MRKPRAAVGSGHRKQAASQEGRQKHAKNNSQAKPSACDGLARQPEEVVLQASVSMYHLFRDVAEVTAFRGSLLSWYDQEKRDLPWRRRAEDEMDLDRRAYAVWVSEVMLQQTQVATVINYYTGWMQKWPTLQDLASASLEEVNQLWAGLGYYSRGRRLQEGARKVVEELGGHMPRTAETLQQLLPGVGRYTAGAIASIAFGQATGVVDGNVARVLCRVRAIGADPSSTLVSQQLWGLAQQLVDPARPGDFNQAAMELGATVCTPQRPLCSQCPVESLCRARQRVEQEQLLASGSLSGSPDVEECAPNTGQCHLCLPPSEPWDQTLGVVNFPRKASRKPPREESSATCVLEQPGALGAQILLVQRPNSGLLAGLWEFPSVTWEPSEQLQRKALLQELQRWAGPLPATHLRHLGEVVHTFSHIKLTYQVYGLALEGQTPVTTVPPGARWLTQEEFHTAAVSTAMKKVFRVYQGQQPGTCMGSKRSQVSSPCSRKKPRMGQQVLDNFFRSHISTDAHSLNSAAQ [S55M] is higher in “8OG:A repair function score” value: -0.604 for the first, -0.0231 for the second.
